Results taken from patent US20030199671A1 (published 2003).
Positions of bridges follow the written chain, without caps; N, C: chain ends.

What was measured:
[1] = biological target: T1, human IgG (unfractionated, polyclonal); assay: filterplate; 25 mg human IgG applied per ml resin
T1 construct: also called hIgG; polyclonal human IgG
Method: After incubation of the samples, with shaking, at room temperature for one hour, the supernatant liquid from each well, containing unbound IgG, was collected by centrifugation into the cognate well of a collection plate. The assay plate was washed three times with PBST (200 μl/wash) and bound IgG was eluted from the media samples by incubation for 30-60 minutes at room temperature in 100 μl Elution Buffer (100 mM CAPS, pH 11.5). Eluates were collected by centrifugation for analysis. Protein concentrations were determined from A₂₈₀ measurements and plotted as a function of mg human IgG bound per ml resin vs. mg human IgG applied per ml resin.
These were subsequently tested in batch filterplate format for relative static capacity, human IgG subtype and species specificity as previously described. In addition, total dynamic capacities were determined for comparison. […] The static capacity (mg IgG bound per ml resin) was measured at the 2.5 mg/ml target concentration (25 mg human IgG applied per ml resin).

human IgG1 [2] = biological target: T2, human IgG1 (human, UniProt P01857-1 1-330 = IgG part); assay: fluorescence anisotropy; pH 7.4 PBS, 15% ethylene glycol
T2 construct: Calbiochem; human plasma IgG1 in anisotropy studies, myeloma-derived (cat. 400120) in batch/column studies; also called hIgG1
T2 sequence (P01857 other isoform, or with tags, fused parts or gaps): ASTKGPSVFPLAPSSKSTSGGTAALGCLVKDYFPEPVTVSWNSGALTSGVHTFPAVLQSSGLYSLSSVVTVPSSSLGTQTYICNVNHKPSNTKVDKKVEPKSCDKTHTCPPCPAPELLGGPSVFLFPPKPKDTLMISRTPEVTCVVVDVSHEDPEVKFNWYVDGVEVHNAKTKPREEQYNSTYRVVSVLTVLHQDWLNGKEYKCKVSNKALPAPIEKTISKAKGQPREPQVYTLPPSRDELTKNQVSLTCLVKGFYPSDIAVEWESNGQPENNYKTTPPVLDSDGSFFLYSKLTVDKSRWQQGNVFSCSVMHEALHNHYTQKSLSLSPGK
Method: (§1) All measurements were performed in 384 well microplates with 20 nM fluorescein-labeled peptide and various concentrations of the IgG isoform in a volume of between 10 and 20 μl using a Tecan Polarion fluorescence polarization plate reader. All binding buffers included 0.01% (v/v) Tween 20 to prevent peptide adsorption to the microplate. The binding mixture was equilibrated for 10 minutes in the microplate at 30° C. prior to performing the measurement.

[3] = biological target: T3, Human IgG Fc fragment isolated from plasma (human); assay: fluorescence anisotropy; pH 8.0, 0.05 M Tris-HCl, 0.2 M NaCl
T3 construct: domain: Fc fragment; also called human Fc; Fc protein
Method: as §1

human IgG2 = biological target: T4, human IgG2 (human, UniProt P01859-1 1-326 = IgG part); assay: fluorescence anisotropy; pH 5.7, 0.01 M Tris-acetate
T4 construct: Calbiochem; plasma IgG2 in anisotropy studies, myeloma-derived (cat. 400122) in batch/column studies; also called hIgG2
T4 sequence (P01859 other isoform, or with tags, fused parts or gaps): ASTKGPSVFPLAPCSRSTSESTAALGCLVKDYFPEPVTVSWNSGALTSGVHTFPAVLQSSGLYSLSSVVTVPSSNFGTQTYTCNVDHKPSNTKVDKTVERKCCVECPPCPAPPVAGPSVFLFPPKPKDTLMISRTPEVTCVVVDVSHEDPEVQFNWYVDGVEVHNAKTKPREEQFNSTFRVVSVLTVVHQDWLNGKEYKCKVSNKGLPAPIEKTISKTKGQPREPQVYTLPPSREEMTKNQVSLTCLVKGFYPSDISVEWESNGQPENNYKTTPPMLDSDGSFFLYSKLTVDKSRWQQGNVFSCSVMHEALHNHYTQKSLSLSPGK
Method: as §1

human IgG4 = biological target: T5, human IgG4 (human, UniProt P01861-1 1-327 = IgG part); assay: as above
T5 construct: Calbiochem; plasma IgG4 in anisotropy studies, myeloma-derived (cat. 400126) in batch/column studies; also called hIgG4
T5 sequence (P01861 other isoform, or with tags, fused parts or gaps): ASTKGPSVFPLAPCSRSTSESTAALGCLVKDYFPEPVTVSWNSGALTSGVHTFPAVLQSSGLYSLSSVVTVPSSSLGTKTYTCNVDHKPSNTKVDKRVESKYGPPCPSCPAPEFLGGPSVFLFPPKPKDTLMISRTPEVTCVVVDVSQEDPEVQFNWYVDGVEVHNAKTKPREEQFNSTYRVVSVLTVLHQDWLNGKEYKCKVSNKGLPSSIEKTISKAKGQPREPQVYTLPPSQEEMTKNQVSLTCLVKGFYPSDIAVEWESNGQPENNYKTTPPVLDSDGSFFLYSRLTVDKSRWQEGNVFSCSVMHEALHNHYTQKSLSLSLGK
Method: as §1

human IgG1 [4] = biological target: T2, human IgG1; assay: as above
Method: as §1

B1: DX249 (peptide)
peptide: Ac-GDDHMCVYTTWGELIWCDNHEPGPEGGGK-NH2
modifications: disulfide 6-17 (inferred)
notes: Synthetic disulfide-cyclised peptide
[1]
  Static Cap.: 24 mg/mL
Human IgG1 [2]
  Kd: 3600 nM
[3]
  Kd: 2500 nM
Human IgG2
  Kd: 68 nM
Human IgG4
  Kd: 300 nM
Human IgG1 [4]
  Kd: 74 nM
